Reference: patent publication US20040203101A1

Molecular target: rat nerve growth factor gamma (rat)
Assay: kinetic constants for the interaction of BAIT with proteinases; method not described

human BAIT (Brain-Associated Inhibitor of Tissue-Type Plasminogen Activator), mature protein expressed in baculovirus/Sf9 cells and purified, sequence (Q99574 19-410): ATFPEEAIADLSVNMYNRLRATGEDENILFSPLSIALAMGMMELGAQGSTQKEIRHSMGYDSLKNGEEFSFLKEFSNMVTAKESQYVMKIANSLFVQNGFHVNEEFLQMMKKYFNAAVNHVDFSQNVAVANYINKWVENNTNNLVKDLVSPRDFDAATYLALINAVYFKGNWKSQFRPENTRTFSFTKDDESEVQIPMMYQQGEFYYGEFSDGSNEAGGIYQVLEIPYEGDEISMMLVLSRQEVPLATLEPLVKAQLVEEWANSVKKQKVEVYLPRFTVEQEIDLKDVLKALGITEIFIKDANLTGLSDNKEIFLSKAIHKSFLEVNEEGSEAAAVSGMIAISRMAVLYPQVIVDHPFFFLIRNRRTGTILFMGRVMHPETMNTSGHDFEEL

human BAIT (Brain-Associated Inhibitor of Tissue-Type Plasminogen Activator), mature protein expressed in baculovirus/Sf9 cells and purified (from UniProt Q99574 19-410)
K: 1.3 µM
k: 0.0086 s⁻¹
ki: 6500 M⁻¹ s⁻¹
